Source: patent US20180282403A1, “AGENTS FOR REDUCING THE ACTIVITY OF GDF15” (GENAGON THERAPEUTICS AB, priority 2015, published 2018)
Blank lines part the entries; values can stand above or below the molecule they belong to.

T1: GDF15 (Homo sapiens, UniProt Q99988)
T1 construct: purchased Abcam
T1 sequence (Q99988 197-308 limits assumed): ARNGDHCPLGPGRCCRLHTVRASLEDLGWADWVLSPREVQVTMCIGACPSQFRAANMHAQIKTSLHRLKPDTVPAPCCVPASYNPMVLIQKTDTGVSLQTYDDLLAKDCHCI

T2: QRFPR (Homo sapiens, UniProt Q96P65)
T2 construct: endogenous in cells
T2 sequence (Q96P65 1-431): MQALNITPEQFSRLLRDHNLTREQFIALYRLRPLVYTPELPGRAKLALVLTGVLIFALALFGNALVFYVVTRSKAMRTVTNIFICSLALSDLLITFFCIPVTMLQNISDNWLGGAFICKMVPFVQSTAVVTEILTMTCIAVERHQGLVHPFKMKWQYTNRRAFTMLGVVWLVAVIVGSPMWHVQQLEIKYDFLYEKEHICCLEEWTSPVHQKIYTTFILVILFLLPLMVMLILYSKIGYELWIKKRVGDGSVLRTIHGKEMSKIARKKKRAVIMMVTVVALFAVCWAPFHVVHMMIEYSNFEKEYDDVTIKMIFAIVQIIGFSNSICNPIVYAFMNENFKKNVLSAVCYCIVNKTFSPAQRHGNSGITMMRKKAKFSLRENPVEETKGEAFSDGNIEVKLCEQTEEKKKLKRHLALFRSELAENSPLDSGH

T3: Growth and differentiation factor 15 (GDF15) (UniProt Q99988 197-308, limits assumed)
T3 construct: Purchased GDF15 added to cells, pull-downs, peptide arrays and ELISA; also called MIC1
T3 sequence (looked up): T1 sequence (Q99988 197-308 limits assumed)

T4: Cleft Lip and Palate Transmembrane protein 1 (CLPTM1) (human, UniProt O96005 2-669)
T4 construct: Endogenous receptor of NK-92 cells, CD14+ cells and human tissues
T4 sequence: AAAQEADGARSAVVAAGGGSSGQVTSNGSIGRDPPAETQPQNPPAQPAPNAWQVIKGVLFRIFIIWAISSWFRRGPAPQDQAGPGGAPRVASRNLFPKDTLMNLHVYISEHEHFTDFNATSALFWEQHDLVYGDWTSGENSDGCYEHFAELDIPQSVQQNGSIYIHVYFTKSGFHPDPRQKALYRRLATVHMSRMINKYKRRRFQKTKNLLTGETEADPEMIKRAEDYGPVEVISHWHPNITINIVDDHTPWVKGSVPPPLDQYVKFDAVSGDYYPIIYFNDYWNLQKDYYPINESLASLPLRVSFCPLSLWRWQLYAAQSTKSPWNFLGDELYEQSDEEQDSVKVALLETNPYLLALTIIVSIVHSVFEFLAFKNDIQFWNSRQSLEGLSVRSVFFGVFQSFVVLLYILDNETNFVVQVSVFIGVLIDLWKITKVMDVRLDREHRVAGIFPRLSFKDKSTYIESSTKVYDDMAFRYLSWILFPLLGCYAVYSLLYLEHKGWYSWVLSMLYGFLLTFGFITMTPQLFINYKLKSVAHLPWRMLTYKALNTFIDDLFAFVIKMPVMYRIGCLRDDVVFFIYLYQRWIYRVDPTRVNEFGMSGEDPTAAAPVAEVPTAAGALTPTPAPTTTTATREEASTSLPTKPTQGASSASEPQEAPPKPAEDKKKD

B1: AP1 (control protein): AAAQEADGARSAVVAAGGGSSGQVTSNGSIGRDPPAETQPQNPPAQPAPNAGGGGSGGGGSGGGGS-Fc mouse IgG1 (Fc fusion, not shown: a dimerising Fc or GST)
chain: AAAQEADGARSAVVAAGGGSSGQVTSNGSIGRDPPAETQPQNPPAQPAPNAGGGGSGGGGSGGGGS
notes: also called control polypeptide
B2: endogenous GDF15 (in MCF-7 cells treated with Sulindac sulphide and in human tumour tissue arrays) (ligand, UniProt Q99988 197-308, looked up)
chain: T1 sequence (Q99988 197-308 limits assumed)
notes: Detected in complex with receptors by in situ PLA
B3: pyroglutamylated RFamide Peptide Receptor (QRFPR) (receptor)
chain: T2 sequence (Q96P65 1-431)
notes: Endogenous receptor of MCF-7 / U2OS cells and human tissues; also called GPR103; orexigenic neuropeptide QRFP receptor

Experiments:
GDF15 = target: T1, GDF15; experiment: GST-pulldowns of GDF15 with GST-fusion QRFPR and CLPTM1 fragments; format: binding; details: equal amounts of GST-fusion protein and GDF15, 4 hrs at 4° C., extensive washes incl. high salt; FIG. 8B
Procedure: We then assembled the GDF15 binding motifs from QRFPR and CLPTM1 using synthetic hybridized oligonucleotides corresponding to the motifs from either extracellular domain 3, 4 (QRFPR) or CLPTM1. The oligonucleotides were inserted in a pGEX4T1 backbone, expressed in BL21 DE3pLys bacteria and purified. The correct sequences were confirmed by Sanger sequencing.
We then incubated the purified GST-fusion proteins with equal amounts of GDF15 and subjected the analytes to extensive washes including high salt buffers.
In short, selected fragments of the receptors were constructed from synthetic oligomers (ultramers, IDT technologies), the flanking ends digested by restriction enzymes, and inserted in a pGEX 4T-1 vector (Pharmacia Biotech). The constructs were cloned in a DH5 a library efficiency bacteria (Invitrogen). The correct clones were identified by analytical restriction digest run on a 2% agarose gel, and validated by Sanger sequencing at the Uppsala sequencing centre.
The validated clones were used to transform BL21pLYs bacteria. […]
The material was denatured by boiling in SDS loading dye supplemented with DDT for 5 min, then run on a 12% acrylamide gel (120 V for 70 min) and analysed by ECL and CCD camera (Biorad). […]

QRFPR [1] = experiment: In situ PLA detection of RAB11-QRFPR double positive endosomes in MCF7 cells; format: cell-based; details: MCF7 cells; GDF15 pre-incubated with receptor fragment; FIG. 9A-D
Text: The RAB11 protein is a marker for recycling endosomes back to the cell surface, and the RAB11 pathway is also involved in exosome assembly (Savina et al., 2005; Savina et al., 2002). RAB11 was thus thought to be a likely candidate to be involved in QRFPR reduction on the cell surface induced by GDF15
An in situ PLA assay was developed to detect the proximity of RAB11 and QRFPR. In the absence of GDF15, only a low signal is observed (FIGS. 5A and 5C).
(§1) We choose to use this assay as a way to investigate if the activity of GDF15 could be inhibited by various agents. […] GDF15-induced formation of RAB11/QRFPR endosomes is inhibited by QRFPR peptides (FIG. 9A-D). Equal amounts of a mastermix of GDF15 was aliquoted and pre-incubated in PBS with the various receptor fragment before addition to cells. Sequentially, the cells were treated with either PBS, GDF15 or GDF15/QRFPR-derived peptide mixes.

QRFPR [2] = experiment: In situ PLA detection of QRFPR at the cell surface in U2OS osteosarcoma cells; format: cell-based; details: U2OS osteosarcoma cells; GDF15 + peptide; FIG. 9E
Text: A-D) In situ PLA detection of the Rab11-QRFPR complex following exposure of MCF7 cells to GDF15. A) +Ctrl peptide. B) +QRFPR extracellular N-terminal peptide. C-D) +QRFPR extracellular loop3 (domain 4) peptide. The level of the Rab11-QRFPR complex is reduced by the peptide from extracellular loop3 of QRFPR. E) in situ PLA detection of QRFPR in U2OS osteosarcoma cells.
as §1

QRFPR [3] = experiment: In situ detection of QRFPR at the cell surface after GDF15 with or without peptide (FIG. 10A-C); format: cell-based; details: cells exposed to GDF15 + synthetic peptide
Text: (§2) A-C) In situ detection of QRFPR at the cell surface. A) Negative control cells with no added GDF15. B) Cells after exposure to GDF15. C) Cells after exposure to GDF15+ synthetic peptide GEKEYDDVTIK derived from extracellular domain 4 of QRFPR. […] D-F) In situ PLA detection of ACTRIIB at the cell surface. D) Control cells with no added P518. E) Cells after exposure to P518. F) Cells after exposure to P518+ synthetic peptide GEKEYDDVTIK derived from extracellular domain 4 of QRFPR in 125 molar excess. The ability of P518 to increase the level of ACTRIIB at the cell surface was not affected by the peptide.
FIGS. 10A-10C confirm that GDF15 reduces the level of QRFPR at the cell surface, and that this reduction may be reversed by a peptide derived from extracellular loop 3 (extracellular domain 4) of QRFPR.

QRFPR [4] = target: T2, QRFPR; experiment: ACTRIIB assay: in situ PLA detection of ACTRIIB at the cell surface after QRFPR agonist P518; format: cell-based; details: P518 + peptide in 125 molar excess, FIG. 10D-F
Text: as §2
The effect of the QRFPR agonist p518 was measured. In short, p518/QRFP-26 was purchased from Phoenix Peptides, CA and processed according to the manufacturer's instructions. Cells were serum-starved prior to P518 stimulation overnight.
P518 was mixed with either PBS or QRFPR receptor fragment dissolved in PBS prior to stimulation of cells.

[5] = target: T3, Growth and differentiation factor 15 …; experiment: Fc-fusion pull-down, said to agree with the array results
Procedure: 20 μg Fc fusion protein constructs were incubated with 0.5 μg GDF15 and protein-G bead with mixing for 6 hrs in +4 C in PBST+1% BSAs. Wash 6 times: 3 times PBST, change tubes, 2 washes PBST+220 mM NaCl. Last wash PBS. The beads were collected using a table-top centrifuge set at 500 g for 5 minutes between washes. Detection The material was loaded on a 4-12% gradient gel, run at 100 volt, transferred to PVDF membrane using a Turbo Tank blot system, blocked by PBS with 3% BSA 1 hr RT, and incubated with RD systems a monoclonal anti-GDF15 antibody overnight. A secondary antibody: mouse HRP 1:2000 was used for detection. The size of band was estimated by comparing with a seeblue2 protein ladder marker run in an adjacent lane.

[6] = target: B3; experiment: in situ PLA on tissue micro array
[7] = target: T4, Cleft Lip and Palate Transmembrane …; experiment: in situ PLA on tissue micro array
ACTRIIB = target: T5, ACTRIIB (UniProt Q13705 19-512, limits assumed); experiment: in situ PLA on serum-starved MCF7 cells
T5 construct: whole, on cells; also called activin type II receptor B
Procedure: MCF7 cells were stimulated with GDF15 (GDF15 from isolated mammalian source or recombinant derived from E. coli purchased from Abcam and Biovision). An assay was developed for monitoring the activity of GDF15 and to investigate the dynamics of receptor(s) such as QRFPR modulation by the ligand.
Serum-starved MCF7 cells were treated with GDF15, and an in situ PLA detection assay was developed to detect the interaction between ACTRIIB and QRFPR using antibodies from two different species, thus allowing the use of Duolink secondary detection reagents. The presence of the QRFPR-ACTRIIB complex was detected in the absence of GDF15 (see FIG. 3A, indicated by arrows).

T5 sequence (Q13705 19-512 limits assumed): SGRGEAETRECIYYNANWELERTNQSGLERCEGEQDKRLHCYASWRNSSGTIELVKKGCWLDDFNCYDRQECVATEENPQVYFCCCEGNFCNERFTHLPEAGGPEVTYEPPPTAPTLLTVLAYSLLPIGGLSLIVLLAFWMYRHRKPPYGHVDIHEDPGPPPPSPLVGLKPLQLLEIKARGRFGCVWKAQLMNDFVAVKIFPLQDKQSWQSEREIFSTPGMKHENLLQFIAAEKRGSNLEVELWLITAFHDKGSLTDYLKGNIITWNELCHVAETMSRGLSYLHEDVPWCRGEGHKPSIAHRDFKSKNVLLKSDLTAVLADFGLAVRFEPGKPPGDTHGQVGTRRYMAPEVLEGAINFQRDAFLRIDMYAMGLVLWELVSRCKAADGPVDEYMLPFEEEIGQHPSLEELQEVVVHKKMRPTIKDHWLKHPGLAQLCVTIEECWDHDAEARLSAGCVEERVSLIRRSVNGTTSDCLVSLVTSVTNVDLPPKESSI

- GDF15 binding to GST-fusion protein (GST-pulldown) (GDF15): Increased binding
Molecule: EIKYDFLYEKEHICCLEEWTS (listed as Homo sapiens) [SEQ ID NO:7]

- P518 induced ACTRIIB levels (QRFPR [4]): not affected
- P518 induced ACTRIIB levels (QRFPR [4]; listed as QRFPR receptor fragment): slight increase of ACTRIIB
Molecule: GEKEYDDVTIK [synthetic peptide derived from extracellular domain 4 of QRFPR]
- GDF15-induced RAB11-QRFPR double positive endosomes (QRFPR [1]): substantially reduced
- level of QRFPR detected at the cell surface (QRFPR [2]): restore the level of QRFPR detected at the cell surface to the same level as control cells
- QRFPR at the cell surface (QRFPR [3]): reversed the removal of QRFPR from the cell surface

- GDF15 binding to GST-fusion protein (GST-pulldown) (GDF15): Increased binding
Molecule: ALFWEQHDLVYGDWTS (listed as Homo sapiens) [SEQ ID NO:18]

Molecule: B1
- binding result [5]: no binding

Molecule: B2
- binding result [6]: binds
- binding result [7]: binds

Molecule: B3
- binding result (ACTRIIB): binds
